Test results: article PMC5896254
Blank lines part the entries; values can stand above or below the molecule they belong to.

How the values were obtained:
WIPI2 (endogenous, HeLa) = assay: GFP-TRAP pull-down, quantified immunoblot; details: HeLa cells starved for 1 hr; n = 3; parent: est. 0.10; read off a plot
[1] = molecular target: RAB11A (endogenous, HeLa) (UniProt P62491); assay: GFP-TRAP pull-down, quantified immunoblot; details: HeLa cells starved for 2 hr; n = 5; parent: est. 1.0; read off a plot
[2] = molecular target: T1, recombinant human HIS-RAB11A, P62491; assay: liposome sedimentation assay; details: chain shown with the change; in vitro; RAB11A-containing liposomes; n = 4; parent: est. 100; read off a plot
T1 chain: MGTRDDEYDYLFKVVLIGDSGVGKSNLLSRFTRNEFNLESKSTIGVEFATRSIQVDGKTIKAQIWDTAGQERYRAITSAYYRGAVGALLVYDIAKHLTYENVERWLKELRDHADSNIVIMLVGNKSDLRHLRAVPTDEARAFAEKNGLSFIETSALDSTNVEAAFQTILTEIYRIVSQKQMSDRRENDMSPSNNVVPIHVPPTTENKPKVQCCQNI

Molecule: GFP-RAB11A (from UniProt P62491) S25N
response (WIPI2 (endogenous, HeLa)): 0.045 au

Molecule: GFP-WIPI2 Y120F; I121E
response [1]: 0.1 au

B1: WIPI2-FLAG WT R224T; R225T (protein)
chain: MNLASQSGEAGAGQLLFANFNQDNTSLAVGSKSGYKFFSLSSVDKLEQIYECTDTEDVCIVERLFSSSLVAIVSLKAPRKLKVCHFKKGTEICNYSYSNTILAVKLNRQRLIVCLEESLYIHNIRDMKVLHTIRETPPNPAGLCALSINNDNCYLAYPGSATIGEVQVFDTINLRAANMIPAHDSPLAALAFDASGTKLATASEKGTVIRVFSIPEGQKLFEFTTGVKRCVSICSLAFSMDGMFLSASSNTETVHIFKLETVKEKPPEEPTTWTGYFGKVLMASTSYLPSQVTEMFNQGRAFATVRLPFCGHKNICSLATIQKIPRLLVGAADGYLYMYNLDPQEGGECALMKQHRLDGSLETTNEILDSASHDCPLVTQTYGAAAGKGTYVPSSPTRLAYTDDLGAVGGACLEDEASALRLDEDSEHPPMILRTD
percent of parent [2]: 92 % WT

B3: WIPI2-FLAG WT L115A; E116T (protein)
chain: MNLASQSGEAGAGQLLFANFNQDNTSLAVGSKSGYKFFSLSSVDKLEQIYECTDTEDVCIVERLFSSSLVAIVSLKAPRKLKVCHFKKGTEICNYSYSNTILAVKLNRQRLIVCATESLYIHNIRDMKVLHTIRETPPNPAGLCALSINNDNCYLAYPGSATIGEVQVFDTINLRAANMIPAHDSPLAALAFDASGTKLATASEKGTVIRVFSIPEGQKLFEFRRGVKRCVSICSLAFSMDGMFLSASSNTETVHIFKLETVKEKPPEEPTTWTGYFGKVLMASTSYLPSQVTEMFNQGRAFATVRLPFCGHKNICSLATIQKIPRLLVGAADGYLYMYNLDPQEGGECALMKQHRLDGSLETTNEILDSASHDCPLVTQTYGAAAGKGTYVPSSPTRLAYTDDLGAVGGACLEDEASALRLDEDSEHPPMILRTD
percent of parent [2]: 43 % WT

The next lines start with the values.

response (WIPI2 (endogenous, HeLa)): 0.15 au
Molecule: GFP-RAB11A (from UniProt P62491) Q70L

response [1]: 0.42 au
Molecule: GFP-WIPI2 L115A; E116T

percent of parent [2]: 38 % WT
B2: WIPI2-FLAG WT Y120F; I121E (protein)
chain: MNLASQSGEAGAGQLLFANFNQDNTSLAVGSKSGYKFFSLSSVDKLEQIYECTDTEDVCIVERLFSSSLVAIVSLKAPRKLKVCHFKKGTEICNYSYSNTILAVKLNRQRLIVCLEESLFEHNIRDMKVLHTIRETPPNPAGLCALSINNDNCYLAYPGSATIGEVQVFDTINLRAANMIPAHDSPLAALAFDASGTKLATASEKGTVIRVFSIPEGQKLFEFRRGVKRCVSICSLAFSMDGMFLSASSNTETVHIFKLETVKEKPPEEPTTWTGYFGKVLMASTSYLPSQVTEMFNQGRAFATVRLPFCGHKNICSLATIQKIPRLLVGAADGYLYMYNLDPQEGGECALMKQHRLDGSLETTNEILDSASHDCPLVTQTYGAAAGKGTYVPSSPTRLAYTDDLGAVGGACLEDEASALRLDEDSEHPPMILRTD
